Data published in patent publication US12409260.

Target: SARS-CoV-2 (2019-nCoV) Spike S1-His Recombinant Protein (Sino Biological Catalog Number 40591-V08H) (SARS-CoV-2) (UniProt P0DTC2)

Chain of Galanthus nivalis agglutinin (GNA) (P30617 24-128 limits assumed): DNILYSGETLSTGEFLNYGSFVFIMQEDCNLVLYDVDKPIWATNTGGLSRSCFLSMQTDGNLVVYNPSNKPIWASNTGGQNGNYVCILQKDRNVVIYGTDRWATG

Galanthus nivalis agglutinin (GNA) (from UniProt P30617 24-128)
percent of S1 depleted from solution at 15 minutes: > 90%
